Numbering of substitutions follows the chain as printed. In names and notes the source's numbering stands.
Columns and labels:
IL2Rβγ-Fc [1] = biological target: T1, IL2Rβγ-Fc (UniProt P14784 27-240; P31785 23-262, limits assumed); assay: BLI (Fortebio Octet RED96), IL2Rβγ-Fc loaded on ProA sensor, analyte 2.5-40 nM as labelled; R2 0.998
T1 construct: From Beijing Zhidao Biotechnology, loaded on ProA sensors; also called IL2Rβγ receptors; complex of β and γ receptor subunits; not shown: Fc
T1 sequence (looked up) 1: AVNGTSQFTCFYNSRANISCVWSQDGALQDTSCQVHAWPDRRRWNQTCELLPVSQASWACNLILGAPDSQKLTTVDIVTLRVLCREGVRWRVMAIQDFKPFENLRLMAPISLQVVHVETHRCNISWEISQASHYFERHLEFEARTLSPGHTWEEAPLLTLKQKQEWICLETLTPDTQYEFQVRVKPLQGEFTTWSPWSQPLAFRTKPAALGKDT
T1 sequence (looked up) 2: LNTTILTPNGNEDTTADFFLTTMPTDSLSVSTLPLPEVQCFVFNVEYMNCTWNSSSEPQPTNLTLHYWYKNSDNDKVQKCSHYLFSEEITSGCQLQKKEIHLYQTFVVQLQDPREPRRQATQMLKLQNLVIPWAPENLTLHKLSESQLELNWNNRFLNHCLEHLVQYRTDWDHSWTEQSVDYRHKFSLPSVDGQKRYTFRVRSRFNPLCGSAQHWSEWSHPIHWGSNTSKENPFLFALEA
Procedure: (§1) The buffer formulation was as follows: 10 mM HEPES, 150 mM sodium chloride, 3 mM EDTA, 0.1% BSA and 0.05% Tween 20. The ProA sensor was purchased from Pall Fortebio (Cat. No. #18-5010). The HISIK sensor was purchased from Pall Fortebio (Cat. No. #18-5120). The BLI equipment was Octet RED96 from Pall Fortebio. Data acquisition and analysis were carried out using software Data acquisition 11.0 and Data Analysis 11.0, respectively.
(§2) IL2Rβγ-Fc was diluted with the buffer solution to a concentration of 10 μg/mL, and then added to column 2 of the 96-well assay plate. The program was set to Loading, 600 s.
(§3) 8 ProA sensors were respectively placed in A-H of column 1 of the sensor holder. In the software Data acquisition 11.0, the detection conditions were set as follows. 1 Pre-wetting: Baseline, 60 s, Position: Column 1. 2 Cycle detection: column 2: loading, 600 s; column 4: Baseline 1, 60 s; columns 5-9: Association, 200 s; column 10: Dissociation, 600 s; column 11: neutralization; and column 12: regeneration.

IL2Rα-his = biological target: T2, IL2Rα-his (UniProt P01589 22-217, limits assumed); assay: BLI (Fortebio Octet RED96), IL2Rα-his loaded on HIS1K sensor, analyte at 100 nM
T2 construct: From Beijing Zhidao Biotechnology, loaded on HIS1K sensors; also called IL2Rα receptor; α receptor subunit; not shown: his tag
T2 sequence (looked up): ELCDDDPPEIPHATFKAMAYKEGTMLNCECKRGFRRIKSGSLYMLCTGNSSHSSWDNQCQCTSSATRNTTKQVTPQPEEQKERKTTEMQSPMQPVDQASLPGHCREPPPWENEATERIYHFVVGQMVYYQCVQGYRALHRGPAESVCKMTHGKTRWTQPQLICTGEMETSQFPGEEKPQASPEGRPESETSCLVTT
Procedure: as §1
IL2Rα-his was diluted with the buffer solution to a concentration of 10 μg/mL, and then added to column 3 of the 96-well assay plate. The program was set to Loading, 600 s.

IL2Rβγ-Fc [2] = biological target: T1, IL2Rβγ-Fc; assay: BLI (Fortebio Octet RED96), IL2Rβγ-Fc loaded on ProA sensor, analyte 1.25-40 nM; R2 0.9953
Procedure: as §2
(§4) They were added to columns 5-9 of the 96-well assay plate, respectively. The program was set to Association, 200 s. The buffers were added to columns 1, 4, 10 and 11 of the 96-well assay plate, and the glycine with pH 1.7 was added to column 12. The loading volume of the above samples or solutions was 200 μL.
as §3

IL2Rβγ-Fc [3] = biological target: T1, IL2Rβγ-Fc; assay: BLI (Fortebio Octet RED96), IL2Rβγ-Fc loaded on ProA sensor, analyte 2.5-40 nM as labelled; R2 0.9984
Procedure: as §1, §2, §3

IL2Rβγ-Fc [4] = biological target: T1, IL2Rβγ-Fc; assay: BLI (Fortebio Octet RED96), IL2Rβγ-Fc loaded on ProA sensor, analyte 1.25-40 nM; R2 0.9972
Procedure: as §2, §4, §3

B1: IL-2 Mutant 1, IL-2 (M39C, V69C, C125A) (ligand)
chain: APTSSSTKKTQLQLEHLLLDLQMILNGINNYKNPKLTRCLTFKFYMPKKATELKHLQCLEEELKPLEECLNLAQSKNFHLRPRDLISNINVIVLELKGSETTFMCEYADETATIVEFLNRWITFAQSIISTLT
notes: Designed to form an intramolecular disulfide bond between Cys39 and Cys69; not shown: HPC4 tag at the C-terminus
**Q.** B1 was tested. Which Kd (IL2Rβγ-Fc [1]) did it give?
**A.** 560 pM

B2: IL-2 Mutant 2, IL-2 (F44C, E62C, C125A) (ligand)
chain: B1 chain with C39M, F44C, E62C, C69V
notes: Designed to form an intramolecular disulfide bond between Cys44 and Cys62; not shown: HPC4 tag at the C-terminus
**Q.** Does B2 bind (IL2Rα-his)?
**A.** no binding (tested: 100 nM)

**Q.** What about the Kd (IL2Rβγ-Fc [2]) of the same binder?
**A.** 675 pM

B3: IL-2 Mutant 3, IL-2 (F44C, P65C, C125A) (ligand)
chain: B1 chain with C39M, F44C, P65C, C69V
notes: Designed to form an intramolecular disulfide bond between Cys44 and Cys65; not shown: HPC4 tag at the C-terminus
**Q.** With B3 as the binder, how does the Kd (IL2Rβγ-Fc [3]) read?
**A.** 660 pM

B4: IL-2 Mutant 4, IL-2 (F42C, V69C, C125A) (ligand)
chain: B1 chain with C39M, F42C
notes: Designed to form an intramolecular disulfide bond between Cys42 and Cys69; not shown: HPC4 tag at the C-terminus
**Q.** Does B4 bind (IL2Rα-his)?
**A.** no binding (tested: 100 nM)

**Q.** And the Kd (IL2Rβγ-Fc [4])?
**A.** 268 pM
